Data taken from paper PMC9905677.

How the values were obtained:
[1] = target: rituximab-Fab (human); test: NMR titration; 1H-15N HSQC peak intensity attenuation of the 15N-labeled protein (rituximab-Fc 120 μM, rituximab-Fab 240 μM, sFcγRIIIb 120 μM) on adding serum polyclonal IgG 120 μM, its Fab 240 μM or HSA 600 μM; 5 mM sodium phosphate, 50 mM NaCl, pH 7.4, 37°C
[2] = target: soluble form of human FcγRIIIb (NA2 form) composed of the extracellular domains (human) (UniProt O75015); test: as above
[3] = target: extracellular region of human FcγRIIIa (158V allele), bis-glycosylated (human) (UniProt P08637)

Sequence of UniProt O75015 (O75015 17-200): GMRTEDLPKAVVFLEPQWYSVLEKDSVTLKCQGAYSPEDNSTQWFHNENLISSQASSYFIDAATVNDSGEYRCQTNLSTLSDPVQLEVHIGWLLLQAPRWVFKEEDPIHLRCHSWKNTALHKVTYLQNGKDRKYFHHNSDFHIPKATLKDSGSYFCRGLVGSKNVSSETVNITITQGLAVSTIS

## human serum albumin (from UniProt P02768 25-609) (natural protein)
[1]
  average level of HSQC peak intensity attenuation (Io-Ip)/Io: 0.6
[2]
  average level of HSQC peak intensity attenuation (Io-Ip)/Io: 0.41

## rituximab (antibody)
[3]
  EC50 of the ADCC reporter assay (Jurkat/FcγRIIIa/NFAT-Luc effector cells, luciferase): 0.02 µg/mL
